B1: K1-70 IgG (antibody, V domains shown)
VH: EVQLVQSGAEVKKPGQSLKISCKASGYSLTDNWIGWVRQKPGKGLEWMGIIYPGDSDTRYSPSFQGQVTISADKSINTAYLQWSSLKASDTAIYYCVGLDWNYNPLRYWGPGTLVTVSS
VL: QSVLTQPPSVSAAPGQKVTISCSGSSSDIGSNYVSWYQQFPGTAPKLLIYDNNKRPSAIPDRFSGSKSGTSATLGITGLQTGDEADYYCGTWDSRLGIAVFGGGTQLTVLG
B2: K1-70 Fab (Fab, V domains shown)
VH: B1 VH
VL: B1 VL
B3: K1-18 IgG (antibody, V domains shown)
VH: EVQLVQSGAEVKKPGESLKISCKGSGYSFTNYWIGWVRQMPGKGLEWMGIIYPYDSDTRYSPSFEGQVTISADKSIRTAYLHWSSLKASDTAMYYCVRPRDGSYPYDAFDIWGQGTMVTVSS
VL: EIVLTQSPGTLSLSPGERATLSCRASQSVSNNYLAWYQQKPGQAPRLLIYGASSRATGIPDRFSGSGSGTDFTLTISRLEPEDFAVYYCQHCGSSLRAFGQGTKVEIKR
B4: K1-18 Fab (Fab, V domains shown)
VH: B3 VH
VL: B3 VL

Target: T1, human TSH receptor (full length), coated on tubes (human, UniProt P16473 22-764)
T1 construct: TSHR coated tubes as described in WO2004/050708A2; Exact preparation on the tubes is not detailed here; also called thyroid stimulating hormone receptor
Assay: competition with 125I-K1-18 IgG on TSHR coated tubes; 1 µg/mL, diluted in HBD serum pool
Procedure: (§1) Binding inhibition assays were carried out using TSHR coated tubes as described in WO2004/050708A2. […] After aspiration, the tubes were washed and 100 μL of ¹²⁵I-labelled protein (5×10⁴ cpm) added and incubated for 1 hour at room temperature with shaking. The tubes were then aspirated, washed and counted in a gamma counter. Inhibition of labelled protein binding was calculated as 100×[1−(cpm bound in the presence of test material/cpm bound in the presence of control material)].

Inhibition of binding (%)	Binder
92.9	B1
92.1	B2
91.1	B3
80.2	B4

Target: T1, human TSH receptor (full length), …
Assay: competition with 125I-K1-18 IgG on TSHR coated tubes; 100 µg/mL, diluted in HBD serum pool
Procedure: as §1

Inhibition of binding (%)	Binder
95.3	B1
92.5	B2
96.1	B3
84.8	B4

Target: T1, human TSH receptor (full length), …
Assay: competition with 125I-K1-18 IgG on TSHR coated tubes; 0.1 µg/mL, diluted in assay buffer
Procedure: as §1

Inhibition of binding (%)	Binder
89.2	B1
87.6	B2
78.9	B3
56.7	B4

Target: T1, human TSH receptor (full length), …
Assay: competition with 125I-K1-18 IgG on TSHR coated tubes; 100 µg/mL, diluted in assay buffer
Procedure: as §1

Inhibition of binding (%)	Binder
94.5	B1
93.3	B2
94.5	B3
86.2	B4

Target: T1, human TSH receptor (full length), …
Assay: competition with 125I-K1-18 IgG on TSHR coated tubes; 30 µg/mL, diluted in assay buffer
Procedure: as §1

Inhibition of binding (%)	Binder
93.1	B1
92.2	B2
93.8	B3
83	B4

Target: T1, human TSH receptor (full length), …
Assay: competition with 125I-K1-18 IgG on TSHR coated tubes; 30 µg/mL, diluted in HBD serum pool
Procedure: as §1

Inhibition of binding (%)	Binder
93.9	B1
91.8	B2
95.6	B3
85	B4

Target: T1, human TSH receptor (full length), …
Assay: competition with 125I-K1-18 IgG on TSHR coated tubes; 0.001 µg/mL, diluted in assay buffer
Procedure: as §1

Inhibition of binding (%)	Binder
-1.7	B1
-3.9	B2
6.9	B3
-2.6	B4

Target: T1, human TSH receptor (full length), …
Assay: competition with 125I-K1-18 IgG on TSHR coated tubes; 0.003 µg/mL, diluted in HBD serum pool
Procedure: as §1

Inhibition of binding (%)	Binder
2.1	B1
3.7	B2
-0.3	B3
1	B4

Target: T1, human TSH receptor (full length), …
Assay: competition with 125I-K1-18 IgG on TSHR coated tubes; 0.03 µg/mL, diluted in HBD serum pool
Procedure: as §1

Inhibition of binding (%)	Binder
17.8	B1
35	B2
15.1	B3
10.3	B4

Target: T1, human TSH receptor (full length), …
Assay: competition with 125I-K1-18 IgG on TSHR coated tubes; 0.003 µg/mL, diluted in assay buffer
Procedure: as §1

Inhibition of binding (%)	Binder
0.1	B1
4.1	B2
2.9	B3
0.8	B4

Target: T1, human TSH receptor (full length), …
Assay: competition with 125I-K1-18 IgG on TSHR coated tubes; 0.001 µg/mL, diluted in HBD serum pool
Procedure: as §1

Inhibition of binding (%)	Binder
0	B1
-3.2	B2
2.7	B3
-1	B4

Target: T1, human TSH receptor (full length), …
Assay: competition with 125I-K1-18 IgG on TSHR coated tubes; 1 µg/mL, diluted in assay buffer
Procedure: as §1

Inhibition of binding (%)	Binder
92	B1
91	B2
92.8	B3
77.5	B4

Target: T1, human TSH receptor (full length), …
Assay: competition with 125I-K1-18 IgG on TSHR coated tubes; 10 µg/mL, diluted in HBD serum pool
Procedure: as §1

Inhibition of binding (%)	Binder
95.1	B1
92.6	B2
94	B3
83	B4

Target: T1, human TSH receptor (full length), …
Assay: competition with 125I-K1-18 IgG on TSHR coated tubes; 0.3 µg/mL, diluted in assay buffer
Procedure: as §1

Inhibition of binding (%)	Binder
91.5	B1
89.6	B2
90.9	B3
71.1	B4

Target: T1, human TSH receptor (full length), …
Assay: competition with 125I-K1-18 IgG on TSHR coated tubes; 0.1 µg/mL, diluted in HBD serum pool
Procedure: as §1

Inhibition of binding (%)	Binder
55.6	B1
75.2	B2
49.4	B3
39	B4

Target: T1, human TSH receptor (full length), …
Assay: competition with 125I-K1-18 IgG on TSHR coated tubes; 0.03 µg/mL, diluted in assay buffer
Procedure: as §1

Inhibition of binding (%)	Binder
45.6	B1
68.8	B2
39.3	B3
24.8	B4

Target: T1, human TSH receptor (full length), …
Assay: competition with 125I-K1-18 IgG on TSHR coated tubes; 3 µg/mL, diluted in HBD serum pool
Procedure: as §1

Inhibition of binding (%)	Binder
94.1	B1
92.8	B2
94	B3
83.4	B4

Target: T1, human TSH receptor (full length), …
Assay: competition with 125I-K1-18 IgG on TSHR coated tubes; 0.01 µg/mL, diluted in HBD serum pool
Procedure: as §1

Inhibition of binding (%)	Binder
6.1	B1
16.2	B2
5.8	B3
1.8	B4

Target: T1, human TSH receptor (full length), …
Assay: competition with 125I-K1-18 IgG on TSHR coated tubes; 0.3 µg/mL, diluted in HBD serum pool
Procedure: as §1

Inhibition of binding (%)	Binder
82.2	B1
88.1	B2
78.3	B3
65.5	B4

Target: T1, human TSH receptor (full length), …
Assay: competition with 125I-K1-18 IgG on TSHR coated tubes; 10 µg/mL, diluted in assay buffer
Procedure: as §1

Inhibition of binding (%)	Binder
91.9	B1
92.4	B2
92.5	B3
81.8	B4

Target: T1, human TSH receptor (full length), …
Assay: competition with 125I-K1-18 IgG on TSHR coated tubes; 3 µg/mL, diluted in assay buffer
Procedure: as §1

Inhibition of binding (%)	Binder
92.9	B1
91.1	B2
93	B3
81.9	B4

Target: T1, human TSH receptor (full length), …
Assay: competition with 125I-K1-18 IgG on TSHR coated tubes; 0.01 µg/mL, diluted in assay buffer
Procedure: as §1

Inhibition of binding (%)	Binder
6.8	B1
25.6	B2
14.9	B3
8.8	B4

From patent US20110300138A1 (published 2011)
